Data taken from PMC8216289 (Nucleic Acids Research, 2021).
Read-outs that look alike come from different tables or passages of the source.

Experiments:
[1] = target: zinc uptake regulator (Zur) from Xanthomonas campestris pv. campestris (XcZur) (Xanthomonas campestris pv. campestris strain 8004); assay: AUC
[2] = target: zinc uptake regulator (Zur) from Xanthomonas campestris pv. campestris (XcZur) (Xanthomonas campestris pv. campestris strain 8004); assay: AUC; remark: listed apart in the source
crystal structure = target: the molecule itself; assay: crystal structure
XcZur [3] = target: T1, XcZur (Xanthomonas campestris pv. campestris …, UniProt Q4UWS5 1-172); assay: EMSA
T1 sequence: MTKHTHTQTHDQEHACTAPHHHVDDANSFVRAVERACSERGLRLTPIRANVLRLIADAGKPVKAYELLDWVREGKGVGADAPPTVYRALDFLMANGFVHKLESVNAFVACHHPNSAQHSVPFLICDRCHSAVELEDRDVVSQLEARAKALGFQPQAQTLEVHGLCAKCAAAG

XcZur [4] = target: T1, XcZur; assay: BLI
XcZur [5] = target: T1, XcZur; assay: EMSA; remark: listed apart in the source

zinc uptake regulator (Zur) from Xanthomonas campestris pv. campestris (XcZur) (natural protein)
percent as dimers [1]: 32.9% | percent as monomers [1]: 60.5% | percent as trimers [1]: 5.8% | stoichiometry N [1]: 2 | percent as dimers [2]: 60.3% | percent as monomers [2]: 28.9% | percent as tetramers [2]: 4.9% | stoichiometry N [2]: 2

B1: N-terminal extension deleted XcZur (T17-G172) (domain or fragment)
chain: TAPHHHVDDANSFVRAVERACSERGLRLTPIRANVLRLIADAGKPVKAYELLDWVREGKGVGADAPPTVYRALDFLMANGFVHKLESVNAFVACHHPNSAQHSVPFLICDRCHSAVELEDRDVVSQLEARAKALGFQPQAQTLEVHGLCAKCAAAG
binding result (crystal structure): binds

B2: EcZur-box (dsDNA)
DNA 1: AGAAGTGTGATATTATAACATTTCATGACTATG
DNA 2: CATAGTCATGAAATGTTATAATATCACACTTCT
binding result (XcZur [3]): binds

B3: P2472-Biotin (dsDNA)
DNA 1: AAGTGTTATAAAGTAACACTAGTCGCG
DNA 2: CGCGACTAGTGTTACTTTATAACACTT
Kd (XcZur [4]): ~0.038 µM

B4: P0267-Biotin (dsDNA)
DNA 1: GGCGAGTTGTTATACAGTAACATTTCTAG
DNA 2: CTAGAAATGTTACTGTATAACAACTCGCC
Kd (XcZur [4]): ~0.022 µM

B5: P3788-Biotin (dsDNA)
DNA 1: ATTGATACGTTATCACATTGCGCCCCGCGCT
DNA 2: AGCGCGGGGCGCAATGTGATAACGTATCAAT
Kd (XcZur [4]): ~0.063 µM

B6: P2976 (dsDNA)
DNA 1: TTAGGGCCACGCGGTTGCGGAGACTATTACACCGGCGCGTGATGAGATCACATCACGTG
DNA 2: CACGTGATGTGATCTCATCACGCGCCGGTGTAATAGTCTCCGCAACCGCGTGGCCCTAA
binding result (XcZur [5]): no binding
